Experiment [1] addresses T1, human insulin receptor (IR) on human IM-9 cells (human, UniProt P06213 28-1382).
T1 construct: whole, on cells; also called human IR
Briefly: competition with biotinylated RHI on IM-9 cells, flow cytometry, 4 C. As to the method:
(§1) 40 µL of an IM-9 cell suspension (8×10⁶ cells/mL) was then added to each well by multichannel pipette, mixed again gently and incubated on ice for 30 min to allow competitive binding on the IR on IM-9 cells. Cells were then washed twice with 275µL of ice-cold FACS wash buffer (HBSS/2mM EDTA/0.1% Na-azide + 0.5% horse serum) by centrifuging the V-bottom plate at 3000 rpm for 3 min and aspirating the supernatant. Cells were then resuspended in 40µL of FACS staining medium containing 1:100 diluted Streptavidin-PE (Life Technologies) for 20 min on ice. Cells were then washed once with 275 µL of ice-cold FACS buffer and finally fixed with 3% paraformaldehyde for 10 min at room temp. Cells were then washed once with 275 µL of ice-cold FACS buffer and resuspended in 250µl of FACS buffer for analysis.
(§2) The insulin-Fc fusion proteins were manufactured in HEK293 cells according to Example 1 and purified using a Protein A column according to Example 4. Their structures were confirmed according to Example 6 by non-reducing and reducing CE-SDS, and the sequences were further identified by LC-MS with glycan removal according to Example 8. Their %homodimer content was measured by size-exclusion chromatography according to Example 10, and their insulin receptor binding affinities were measured according to Example 12.
A general note: A flow cytometer gives signals particle by particle.

For experiment [2], the target named is T1, human insulin receptor (IR) on human …. The description is as above. The method, then: as §1, §2
This is another data set of the same source.

For experiment [3], the target named is T2, biotinylated recombinant human Fc(gamma)RI (human, UniProt P12314 16-288, biotinylated, site not stated).
T2 construct: Bought reagent; construct not described; also called rhFc(gamma)RI; Fc(gamma) receptor I
T2 sequence (P12314 16-288 limits assumed): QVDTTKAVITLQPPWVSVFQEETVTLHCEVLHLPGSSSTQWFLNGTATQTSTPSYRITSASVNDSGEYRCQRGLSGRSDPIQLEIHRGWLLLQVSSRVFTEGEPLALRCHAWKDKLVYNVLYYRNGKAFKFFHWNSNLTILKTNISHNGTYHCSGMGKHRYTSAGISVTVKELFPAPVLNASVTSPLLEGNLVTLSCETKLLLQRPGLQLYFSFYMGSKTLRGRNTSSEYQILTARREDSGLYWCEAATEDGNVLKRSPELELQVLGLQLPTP
Description: ELISA, fusion protein coated, biotinylated rhFc(gamma)RI at 3000 ng/mL. As to the method:
The binding of insulin-Fc fusion proteins to the Fc(gamma)RI at pH 7.4 is conducted using an ELISA assay as follows using human Fc(gamma)RI (i.e., rhFc(gamma)RI). Insulin-Fc fusion proteins are diluted to 10 µg/mL in sodium bicarbonate buffer at pH 9.6 and coated on Maxisorp (Nunc) microtiter plates overnight at 4° C., after which the microplate strips are washed 5 times with PBST (PBS/0.05% Tween-20) buffer and blocked with Superblock blocking reagent (ThermoFisher). Serial dilutions of biotinylated rhFc(gamma)RI (recombinant human Fc(gamma)RI; R&D Systems) are prepared in PBST/10% Superblock buffer from 3000 ng/mL to 4.1 ng/mL and loaded at 100 µL/well onto the microplate strips coated with insulin-Fc fusion protein. The microtiter plate is incubated for 1 hour at room temperature after which time the microplate strips are washed 5 times with PBST and then loaded with 100 µL/well of streptavidin-HRP diluted 1:10000 in PBST/10% Superblock buffer. After incubating for 45 min, the microplate strips are washed again 5 times with PBST. TMB is added to reveal the bound Fc(gamma)RI proteins and is stopped with ELISA stop reagent (Boston Bioproducts). The plate is read in an ELISA plate reader at 450 nm, and the OD450 values (proportional to the binding of rhFc(gamma)RI to insulin-Fc protein) are plotted against log concentrations of rhFc(gamma)RI added to each well to generate binding curves using GraphPad Prism software. For groupings of compounds with somewhat similar curves, the OD450 at one of the higher concentrations, for instance at rhFc(gamma)RI concentrations of 3000 ng/mL, can be used to identify differences between coated insulin-Fc fusion protein compounds. […]
Finally, select compounds were tested for their likelihood to interact with the immune system by measuring their Fc(gamma) receptor binding activity according to the procedure of Example 15.
A general note: An ELISA detects its analyte on a solid surface through an enzyme-linked reagent.

Experiment [4] concerns the target T1, human insulin receptor (IR) on human …. Briefly: competition with biotinylated RHI on IM-9 cells, flow cytometry, 4 C. As to the method: as §1, §2
This is another data set of the same source.

The target in experiment [5] is T3, biotinylated canine FcRn (canine, UniProt A0A8I3PFR8 25-347, biotinylated, site not stated). Briefly: ELISA pH 5.5, fusion protein coated, biotinylated canine FcRn titrated. The method, then:
(§3) Insulin-Fc fusion proteins comprising Fc fragments of canine origin were diluted to 10 µg/ml in sodium bicarbonate pH 9.6 buffer and coated in duplicate on Maxisorb ELISA plate strips for 1-2 hours at RT. The strips were then washed 4 times with PBST (PBS/0.1% Tween-20) buffer and blocked with Superblock blocking reagent (ThermoFisher). Strips for FcRn binding were then washed again twice with pH 5.5 MES/NaCl/Tween (50 mM MES/150mM NaCl/0.1% Tween-20) buffer before addition of the FcRn reagent (biotinylated canine FcRn; Immunitrack). Serial dilutions (1:3X dilutions) of biotinylated FcRn reagent were prepared in pH 5.5 MES/NaCl/Tween/10%Superblock buffer at concentrations from 1000 ng/ml to 0.45 ng/mL and loaded at 100 µL/well using a multichannel pipettor onto the strips coated with the insulin-Fc fusion protein compounds. The assay plate was then incubated for 1 hour at room temperature. FcRn binding strips were washed 4 times with pH 5.5 MES/NaCl/Tween buffer and then loaded with 100 µl/well streptavidin-HRP diluted 1:10000 in pH 5.5 MES/NaCl /10%Superblock buffer. After incubating for 45 minutes, strips were washed again 4 times with pH 5.5 MES/NaCl/Tween buffer. […] The plate was read in an ELISA plate reader at a wavelength of 450 nm. […] EC50 values for each binding curve were calculated to compare between different compounds.

Experiment [6] deals with T1, human insulin receptor (IR) on human …. Description: competition with biotinylated RHI on IM-9 cells, flow cytometry, 4 C. This is another data set of the same source.
Experiment [7] addresses T3, biotinylated canine FcRn. Description: FcRn ELISA; species of FcRn not given, taken as canine. The method, then: as §3
Experiment [8] concerns the target T1, human insulin receptor (IR) on human …. Description: competition with biotinylated RHI on IM-9 cells, flow cytometry, 4 C; material purified by Protein G. As to the method: as §1
(§4) The insulin-Fc fusion proteins were manufactured in HEK293 cells according to Example 1 and purified using a Protein A or Protein G columns according to Example 4. […] Their %homodimer content was measured by size-exclusion chromatography according to Example 10, and their insulin receptor binding affinities were measured according to Example 12. Additionally, the insulin-Fc fusion protein affinities for the canine FcRn receptor were measured according to Example 15.

The target is the same in experiment [9]. Description: competition with biotinylated RHI on IM-9 cells, flow cytometry, 4 C; material purified via Protein A. As to the method: as §1, §4

T1 sequence (P06213 28-1382): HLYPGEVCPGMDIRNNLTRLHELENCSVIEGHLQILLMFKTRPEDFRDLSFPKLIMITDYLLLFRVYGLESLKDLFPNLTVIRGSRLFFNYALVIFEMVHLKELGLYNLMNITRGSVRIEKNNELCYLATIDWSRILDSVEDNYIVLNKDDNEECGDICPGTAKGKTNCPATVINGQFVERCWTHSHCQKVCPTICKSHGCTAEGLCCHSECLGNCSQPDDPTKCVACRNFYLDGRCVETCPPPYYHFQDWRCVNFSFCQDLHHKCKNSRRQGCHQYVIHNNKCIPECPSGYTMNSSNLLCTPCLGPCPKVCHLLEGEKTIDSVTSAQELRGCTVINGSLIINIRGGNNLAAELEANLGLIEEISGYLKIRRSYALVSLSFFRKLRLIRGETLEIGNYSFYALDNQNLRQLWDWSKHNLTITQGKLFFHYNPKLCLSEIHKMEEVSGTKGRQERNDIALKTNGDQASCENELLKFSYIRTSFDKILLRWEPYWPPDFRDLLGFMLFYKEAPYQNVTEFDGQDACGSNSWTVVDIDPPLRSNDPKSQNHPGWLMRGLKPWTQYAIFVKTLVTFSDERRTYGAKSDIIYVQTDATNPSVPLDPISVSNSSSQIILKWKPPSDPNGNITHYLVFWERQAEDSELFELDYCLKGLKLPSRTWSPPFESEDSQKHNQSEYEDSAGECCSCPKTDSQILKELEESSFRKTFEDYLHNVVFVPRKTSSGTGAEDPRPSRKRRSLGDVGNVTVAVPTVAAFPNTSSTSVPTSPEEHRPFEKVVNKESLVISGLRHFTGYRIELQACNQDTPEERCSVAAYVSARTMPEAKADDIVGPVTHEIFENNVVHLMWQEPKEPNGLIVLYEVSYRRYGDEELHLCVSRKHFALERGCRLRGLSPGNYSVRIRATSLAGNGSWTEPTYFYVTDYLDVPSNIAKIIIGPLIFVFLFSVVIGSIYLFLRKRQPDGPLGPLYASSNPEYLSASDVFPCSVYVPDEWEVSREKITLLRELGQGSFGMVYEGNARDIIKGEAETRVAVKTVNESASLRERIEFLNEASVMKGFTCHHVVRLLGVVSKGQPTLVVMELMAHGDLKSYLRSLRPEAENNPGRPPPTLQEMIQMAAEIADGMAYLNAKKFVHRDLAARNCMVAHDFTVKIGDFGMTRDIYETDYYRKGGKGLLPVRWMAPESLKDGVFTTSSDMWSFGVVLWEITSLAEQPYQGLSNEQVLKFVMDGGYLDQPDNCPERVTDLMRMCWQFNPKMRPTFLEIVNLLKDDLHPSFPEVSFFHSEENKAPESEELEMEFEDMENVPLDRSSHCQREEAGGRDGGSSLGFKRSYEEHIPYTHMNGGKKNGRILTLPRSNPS
T3 sequence (A0A8I3PFR8 entry or part of it): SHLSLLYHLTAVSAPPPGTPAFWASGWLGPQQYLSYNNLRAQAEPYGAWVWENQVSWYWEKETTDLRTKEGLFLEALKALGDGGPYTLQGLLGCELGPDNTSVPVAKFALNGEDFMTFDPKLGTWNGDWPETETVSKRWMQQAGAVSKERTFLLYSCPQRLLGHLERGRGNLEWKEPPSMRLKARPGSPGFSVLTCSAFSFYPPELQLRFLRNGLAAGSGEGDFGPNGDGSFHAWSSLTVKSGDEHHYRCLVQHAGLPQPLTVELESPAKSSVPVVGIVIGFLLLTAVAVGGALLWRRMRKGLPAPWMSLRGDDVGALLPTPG

B1: insulin-Fc fusion protein of SEQ ID NO: 26 (Fc fusion)
chain: FVNQHLCGSHLVEALELVCGERGFHYGGGGGGSGGGGGIVEQCCTSTCSLDQLENYCGGGGGQGGGGQGGGGQGGGGGDCPKCPAPEMLGGPSVFIFPPKPKDTLLIARTPEVTCVVVDLDPEDPEVQISWFVDGKQMQTAKTQPREEQFNGTYRVVSVLPIGHQDWLKGKQFTCKVNNKALPSPIERTISKARGQAHQPSVYVLPPSREELSKNTVSLTCLIKDFFPPDIDVEWQSNGQQEPESKYRTTPPQLDEDGSYFLYSKLSVDKSRWQRGDTFICAVMHEALHNHYTQESLSHSPG
modifications: native N-glycosylation site cNg-NB151
Regarding B1, the concentration for half-maximal inhibition (IC50) in experiment [1], in experiment [2] and in experiment [4] was 2340 nM each time. Also, in experiment [3], the OD450nm is 0.368. In experiment [3], the “OD450nm minus assay background” value was found to be 0.311. Further, the “ratio to SEQ ID NO: 36” value in [3] turned out to be 0.84. Moreover, the EC50 (commonly the midpoint of the concentration-response curve) with biotinylated canine FcRn [5] was 0.599 µg/mL.

B2: insulin-Fc fusion protein of SEQ ID NO: 30 (Fc fusion)
chain: FVNQHLCGSHLVEALALVCGERGFHYGGGGGGSGGGGGIVEQCCTSTCSLDQLENYCGGGGGQGGGGQGGGGQGGGGGDCPKCPAPEMLGGPSVFIFPPKPKDTLLIARTPEVTCVVVDLDPEDPEVQISWFVDGKQMQTAKTQPREEQFSGTYRVVSVLPIGHQDWLKGKQFTCKVNNKALPSPIERTISKARGQAHQPSVYVLPPSREELSKNTVSLTCLIKDFFPPDIDVEWQSNGQQEPESKYRTTPPQLDEDGSYFLYSKLSVDKSRWQRGDTFICAVMHEALHNHYTQESLSHSPG
B2: the IC50 (as a rule, the concentration needed to halve the response being measured) in experiment [6] is 2040 nM. In experiment [3], the OD450nm was 0.177, the “OD450nm minus assay background” value was determined as 0.12 and the “ratio to SEQ ID NO: 36” value came to 0.32. The molecule further came in with a 50% effective concentration (EC50) with biotinylated canine FcRn [7] of 1.19 µg/mL.

B3: insulin-Fc fusion protein of SEQ ID NO: 59 (Fc fusion)
chain: FVNQHLCGSHLVEALELVCGERGFHYGGGGGGSGGGGGIVEQCCTSTCSLDQLENYCGGGGGQGGGGQGGGGQGGGGGCNNCPCPGCGLLGGPSVFIFPPKPKDILVTARTPTVTCVVVDLDPENPEVQISWFVDSKQVQTANTQPREEQSNGTYRVVSVLPIGHQDWLSGKQFKCKVNNKALPSPIEEIISKTPGQAHQPNVYVLPPSRDEMSKNTVTLTCLVKDFFPPEIDVEWQSNGQQEPESKYRMTPPQLDEDGSYFLYSKLSVDKSRWQRGDTFICAVMHEALHNHYTQISLSHSPG
notes: purified by Protein G
As for B3, the half-maximal inhibitory concentration (IC50) in experiment [8] was 2080 nM.

B4: insulin-Fc fusion protein of SEQ ID NO: 58 (Fc fusion)
chain: FVNQHLCGSHLVEALELVCGERGFHYGGGGGGSGGGGGIVEQCCTSTCSLDQLENYCGGGGGQGGGGQGGGGQGGGGGRCTDTPPCPVPEPLGGPSVLIFPPKPKDILRITRTPEVTCVVLDLGREDPEVQISWFVDGKEVHTAKTQSREQQFNGTYRVVSVLPIEHQDWLTGKEFKCRVNHIDLPSPIERTISKARGRAHKPSVYVLPPSPKELSSSDTVSITCLIKDFYPPDIDVEWQSNGQQEPERKHRMTPPQLDEDGSYFLYSKLSVDKSRWQQGDPFTCAVMHETLQNHYTDLSLSHSPG
notes: purified by Protein A or Protein G
For the molecule B4, in experiment [3], the OD450nm was 0.253, the “OD450nm minus assay background” value was determined as 0.196 and the “ratio to SEQ ID NO: 36” value stood at 0.53. In experiment [9], this molecule displayed an IC50 of 2590 nM. This molecule displayed an EC50 with biotinylated canine FcRn [5] of 1.61 µg/mL.

Source of the values: US20230250148A1 (published 2023).
